In the supplement of paper PMC10724198:
± gives the standard deviation of the averaged measurements.

What was measured:
Saccharomyces cerevisiae [1] = assay: protein stability index of tFT-peptide fusion (C-terminal peptide) (PSI (0-1 scale)); higher = more stable (slower turnover); conditions: genetic background: wild type; temperature: 30 C
Saccharomyces cerevisiae [2] = assay: as above
Procedure: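 MPS profiling in S. cerevisiae of the tFT-X12 degron library: putative degron peptides plus stable controls, 12 aa, fused to the C-terminus of a sfGFP-mCherry timer. Cells are FACS-sorted into 8 mCherry/sfGFP bins and deep-sequenced. PSI runs from 0 (unstable) to 1 (stable). Backgrounds are wild type, das1Δ and doa10Δ at 30 °C, and wild type, das1Δ, cdc34-1 and cdc53-1 at 37 °C; 2-3 technical replicates each.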

[3] = genetic background: cdc34-1, temperature: 37 C
[4] = genetic background: cdc53-1, temperature: 37 C
[5] = genetic background: das1 deletion, temperature: 30 C
[6] = genetic background: das1 deletion, temperature: 37 C
[7] = genetic background: doa10 deletion, temperature: 30 C
[8] = genetic background: wild type, temperature: 30 C
[9] = genetic background: wild type, temperature: 37 C
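Note: PSI is a weighted mean of sequencing reads over stability bins, variants kept only with over 10 reads, mCherry proximal and sfGFP distal, peptide attached via GGGS linker.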

Sequence	protein stability index (Saccharomyces cerevisiae [1])	protein stability index (Saccharomyces cerevisiae [2]; [3])	protein stability index (Saccharomyces cerevisiae [2]; [4])	protein stability index (Saccharomyces cerevisiae [2]; [5])	protein stability index (Saccharomyces cerevisiae [2]; [6])	protein stability index (Saccharomyces cerevisiae [2]; [7])	protein stability index (Saccharomyces cerevisiae [2]; [8])	protein stability index (Saccharomyces cerevisiae [2]; [9])
LAGLFICTLISC	0.254 ± 0.071	0.159 ± 0.0021	0.176 ± 0.0055	0.203 ± 0.023	0.2775 ± 0.0013	0.185 ± 0.012	0.191 ± 0.029	0.2449 ± 0.00042
LASCRIVVIYSI	0.33 ± 0.068	0.521 ± 0.029	0.52 ± 0.15	0.349 ± 0.036	0.5746 ± 0.0025	0.163 ± 0.0081	0.202 ± 0.022	0.364 ± 0.029
LCFEQRYIGVLV	0.372 ± 0.0085	0.305 ± 0.045	0.38376 ± 5e-05	0.279 ± 0.035	0.4433 ± 0.0021	0.227 ± 0.008	0.251 ± 0.03	0.393 ± 0.018
LCFVSTWVWSVG	0.474 ± 0.037	0.498 ± 0.055	0.5203 ± 0.0015	0.395 ± 0.032	0.58 ± 0.0085	0.368 ± 0.016	0.401 ± 0.01	0.569 ± 0.007
LCWLCIRWSRVV	0.152 ± 0.0052	0.368 ± 0.044	0.543 ± 0.023	0.443 ± 0.017	0.589 ± 0.013	0.0721 ± 0.015	0.0746 ± 0.012	0.085 ± 0.02
LDIFRKLVIVLC	0.169 ± 0.07	0.0767 ± 0.013	0.0777 ± 0.02	0.18 ± 0.033	0.2628 ± 0.00073	0.102 ± 0.027	0.107 ± 0.025	0.0878 ± 0.0015
LEALRFTFYHFF	0.34252 ± 7.1e-06	0.683 ± 0.038	0.7891 ± 0.0068	0.615 ± 0.016	0.788 ± 0.029	0.203 ± 0.0091	0.222 ± 0.018	0.41 ± 0.014
LEGRVLRIFCVT	0.263 ± 0.057	0.496 ± 0.0051	0.593 ± 0.03	0.49 ± 0.0052	0.651 ± 0.018	0.191 ± 0.011	0.212 ± 0.024	0.37 ± 0.048
LFFRCVFRISFF	0.327 ± 0.0064	0.274 ± 0.015	0.266 ± 0.0095	0.302 ± 0.03	0.387 ± 0.006	0.351 ± 0.027	0.254 ± 0.015	0.331 ± 0.0072
LFGIDIVITYLL	0.398 ± 0.011	0.31 ± 0.011	0.459 ± 0.064	0.315 ± 0.036	0.441 ± 0.017	0.284 ± 0.015	0.304 ± 0.019	0.392 ± 0.026
LFILRPVVGVLN	0.495 ± 0.053	0.531 ± 0.034	0.53 ± 0.021	0.402 ± 0.035	0.555 ± 0.0077	0.368 ± 0.012	0.408 ± 0.016	0.528 ± 0.008
LFIWFVSSPFYC	0.452 ± 0.023	0.517 ± 0.025	0.5998 ± 0.0054	0.451 ± 0.017	0.63068 ± 0.0006	0.3134 ± 0.0029	0.343 ± 0.033	0.547 ± 0.01
LFIYSVCSYYYE	0.349 ± 0.0058	0.31 ± 0.037	0.411 ± 0.053	0.269 ± 0.038	0.461 ± 0.049	0.227 ± 0.0051	0.283 ± 0.016	0.418 ± 0.068
LFRLPSPLLFFL	0.484 ± 0.028	0.559 ± 0.0067	0.611 ± 0.029	0.558 ± 0.025	0.6643 ± 0.0018	0.4911 ± 0.0026	0.429 ± 0.025	0.53 ± 0.016
LFSAFFPLLFLS	0.112 ± 0.013	0.291 ± 0.022	0.353 ± 0.0036	0.436 ± 0.044	0.572 ± 0.02	0.107 ± 0.014	0.0848 ± 0.0096	0.0875 ± 0.00095
LFYATRLLFLCI	0.367 ± 0.0039	0.415 ± 0.034	0.432 ± 0.028	0.411 ± 0.053	0.5185 ± 0.0026	0.34042 ± 0.00025	0.3 ± 0.023	0.4454 ± 0.002
LGHSLVRFVYCF	0.451 ± 0.0073	0.46 ± 0.023	0.498 ± 0.024	0.411 ± 0.025	0.538 ± 0.011	0.349 ± 0.0072	0.357 ± 0.029	0.468 ± 0.016
LGVGVVPEFFVV	0.464 ± 0.0065	0.659 ± 0.028	0.729 ± 0.014	0.592 ± 0.022	0.723 ± 0.023	0.332 ± 0.022	0.374 ± 0.022	0.527 ± 0.0086
LLFVVGTGRWVG	0.302 ± 0.046	0.665 ± 0.022	0.736 ± 0.011	0.629 ± 0.029	0.744 ± 0.024	0.159 ± 0.0042	0.183 ± 0.033	0.482 ± 0.035
